Assay results from the supplement of paper PMC12764529.
± gives the half width of the 95% confidence interval.

What was measured:
[1] = folding stability dG unfold from trypsin proteolysis; higher = more stable
Summary of the method: (§1)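 Only designs with AlphaFold2 dimer inter-PAE above 15 were retained; each was a mini-protein under 80 residues with no cysteine, in a PA-tagged cDNA display construct. After digestion with trypsin and chymotrypsin and sequencing, K50 was inferred by Bayesian fitting of counts, and unfolding free energy was derived per protease or combined against a sequence-predicted unfolded-state K50 and a shared folded-state K50.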

[2] = folding stability dG unfold from chymotrypsin proteolysis; higher = more stable
Summary of the method: as §1

[3] = folding stability dG unfold (combined trypsin and chymotrypsin); higher = more stable
Summary of the method: as §1

Sequence | folding stability dG unfold [1] [kcal/mol] | folding stability dG unfold [2] [kcal/mol] | folding stability dG unfold [3] [kcal/mol]
SAGGSVKIKIKVPKDNPEAKKLAEKLRKLPGVKEVKVKKVKEINGYLVLEIEVEVSPEVKEKLKELLSAGGS [r16_394_TrROS_Hall] | 2.71 ± 0.25 | 2.75 ± 0.18 | 2.97 ± 0.34
SAGGSVKVELKGDYLVITIPVEVPGDKDKPALLTIVIDLSPNGKPARIEMRSLETGKPLGEFTIDLSAGGSA [r2_412_TrMRF] | 2.14 ± 0.099 | 2.63 ± 0.04 | 2.43 ± 0.07
SAGGSVRLELEGVNPETGERYRLEFELPPVPLPPVLVVPLEDLELLRRLGIPEDAAVFPELGLVVVASAGGS [r16_194_TrMRF] | 2.29 ± 0.082 | 2.76 ± 0.051 | 2.66 ± 0.12
SAGGSVSDIVNELKKKGIKVTSIEKTEDGTYVITTELPNGVKKEYKYSTSDPKNVAALKAAIPEELVSAGGS [r16_821_JUSTAS] | 1.44 ± 0.038 | 1.19 ± 0.072 | 1.36 ± 0.066
SAGGSVTKEELEKLNVEEVAALLPEDYTVTVVPGTGVVVISAPDRTLTITHDPATGKVTLTSEVEVSAGGSA [r2_470_JUSTAS] | 1.41 ± 0.1 | 0.125 ± 0.21 | 0.797 ± 0.15
SAGGSVVPASEPVTIPDTATGTTLTLPTPAGATITPDPATNTTTVTFTDGDRASSVTFVNGAATSASTASAG [r5_22_JUSTAS] | -0.53 ± 0.098 | -0.139 ± 0.21 | -0.162 ± 0.11
SAGGSWIEFMIMVPYPDGKPLEDLPPEEVVDIAKTFMSDFGYKIKDINVQYNPDDGYVHVPIEIKPSAGGSA [r2_237_TrROS] | 1.26 ± 0.074 | 1.09 ± 0.2 | 1.21 ± 0.2
SAGGSYRVETTKTEVSEATAPDGTAYRVTTTTTVVTYPDGTRRTVTNVTITDPATGVPTSSTATTTAVSAGG [r13_133_JUSTAS] | 2.45 ± 0.048 | 2.056 ± 0.017 | 2.25 ± 0.03
SAGGTAEEIAEKVRDIFQDNGYPIEVEPRRWDPNNYVTWRMRMPGWSIEIQWDPDDLEVEIEIEPMPSAGGS [r8_157_TrROS] | 2.47 ± 0.073 | 3.71 ± 0.11 | 3.24 ± 0.2
SAGGTAEEIAETIAEKFSKKNNNPNVRITVEKEPDSLRIDITFPNNGHEIEIEFEDGGIRKIEWEPYSAGGS [r16_397_TrROS] | 0.276 ± 0.27 | -0.251 ± 0.85 | -0.269 ± 0.94
SAGGTAEELAKNIADNLQKAGWIKKVEVEVHPSPDGNIMVRIEIKIEPPPPPPPPKVEYDENGKPRYDSAGG [r13_957_TrROS] | 1.04 ± 0.12 | 0.662 ± 0.23 | 0.924 ± 0.39
SAGGTIEITFMVRTPEEAEDMADMIARMLAREHGMKVTIDDVEVHEYKDPEDGQEYYMVEFRIEIKPSAGGS [r8_171_TrROS] | 3.23 ± 0.081 | 4.146 ± 0.04 | 3.88 ± 0.11
SAGGTIMIPFDTPEQAKDIREAAKDGEPIEIRPPDGKPIKFKIKDVEVDPNSGWLVIKIPNGRTIPISAGGS [r16_254_TrROS] | -0.179 ± 0.19 | 0.151 ± 0.15 | 0.0332 ± 0.097
SAGGTMIELKSASGKTALLPLPPGTERVEREGDKWTIYLPPEYTLTVEITAPVPPSSLFDLKVLSRKLSAGG [r19_274_JUSTAS] | 0.595 ± 0.077 | 0.509 ± 0.35 | 0.734 ± 0.31
SAGGTSYLVRLELYETSTGEPLELELPFPNLPAEEVEELAKELAKALAEPTGNDLKARVEVVPLPDESAGGS [r8_185_TrMRF] | 0.0944 ± 0.031 | 0.717 ± 0.054 | 0.53 ± 0.052
SAGGVDPSKLTPLSTREVPVDDRRLLVTTYLTPDGKPLYTVTVLDAEGRPLGSELVPPEKVSADGRLESAGG [r13_447_JUSTAS] | -0.0975 ± 0.1 | 0.506 ± 0.11 | 0.334 ± 0.066
SAGGVEELAKELAERLREELERRLGVEKVEVVDVEVVEVDEETGTVTVRITVRLPDGELLELELELHLDSAG [r5_20_TrROS_Hall] | 3.47 ± 0.17 | 3.08 ± 0.13 | 3.39 ± 0.15
SAGGVERDPPGKNVYYVEIEIKIEIRDPNNGKPLEIPVPITYPFKSPADALEQMRRQARNLAEKLLNSAGGS [r16_624_TrROS] | 1.78 ± 0.041 | 2.18 ± 0.1 | 2.03 ± 0.13

Sequence | folding stability dG unfold [1] [kcal/mol] | folding stability dG unfold [2] [kcal/mol] | folding stability dG unfold [3] [kcal/mol]
SAGGVIELPNAGLPEFLAFLKEAAEKGIPNVTVILTGPSKPYLAIYDPKKNIVTVLHPNGKTYTFKASAGGS [r16_481_TrMRF] | 2.76 ± 0.15 | 2.99 ± 0.058 | 2.91 ± 0.12
SAGGVIPPSATITTLKTYPDGTVLTNVTFPDGTPMTVTLTRETLPDGSVVLKFTNPATGEELATFPVSSAGG [r13_527_JUSTAS] | 1.93 ± 0.063 | 2.15 ± 0.062 | 2.15 ± 0.088
SAGGVITAVESTTTPLPNGTVLVTLTLKEGGETLQVTVTVSPDGVTVTTPSGKTSTIAPEELASLLPSAGGS [r16_593_JUSTAS] | 1.31 ± 0.025 | 1.39 ± 0.025 | 1.34 ± 0.076
SAGGVLETKLPGGVSVTYSETPFVKDGREYLVLPAAAGDPAGAPFVTTTVVEPETGEVLETTETPLASAGGS [r8_492_JUSTAS] | 0.331 ± 0.059 | 0.536 ± 0.13 | 0.465 ± 0.1
SAGGVPVSVEVDPRGEVTITNPVNGSSLVIPVPPDAEVTVVSLPPSSVTVRVTVGGEERDIVLPPSSVSAGG [r19_309_JUSTAS] | 0.587 ± 0.023 | 0.662 ± 0.034 | 0.621 ± 0.065
SAGGVRKIEFRIDLPDPNVTIEEIVERILKELGLKPEEAIVEVLKIEEVEDEDGIPHIRIDVKIYVPDKSAG [r5_528_TrMRF] | 3.54 ± 0.1 | 2.98 ± 0.031 | 3.21 ± 0.059
SAGGVTIEVDPGTGKVTITFPDGSSATIEVPPDERAVLFVKEGEGEVEVALVREDDPEALEKALELGSAGGS [r16_623_TrMRF] | 0.811 ± 0.059 | 1.34 ± 0.058 | 1.05 ± 0.2
SAGGVTTPVTFTVPPSLDPEEAAERIAKELEEELKAASNKKVKVTVESVTPLPDGTLRVTVVITTEPSAGGS [r8_156_JUSTAS] | 3.76 ± 0.2 | 3.14 ± 0.067 | 3.31 ± 0.086
SAGGVVTVTVDPNSDKVTAYTTRTVTVYFNELGIWKEEEVTDVVTMSQEELEKLKEESGLPMVIVGASAGGS [r8_337_JUSTAS] | 0.216 ± 0.061 | -0.0773 ± 0.19 | 0.238 ± 0.094
SAGGVYVIKIKFEFGDGLKAELFIMFQSWEQAKEQAENLARNHGLRIDEIEVVPIKPMPPPDPDDQKSAGGS [r8_364_TrROS] | 2.46 ± 0.14 | 4.13 ± 0.14 | 3.63 ± 0.29
SAGGWIPPGAEIEIDEIGPDGTITVKIKYPDGKPMSITMRRQRDKDGKRYIELYFPGSGRPIASFPIKSAGG [r13_527_TrROS] | 1.84 ± 0.03 | 1.57 ± 0.08 | 1.78 ± 0.09
SAGGWLWVRTNGRIFVIEIKTEMKWEYDPGDPGQWRMDMEPEIEVRPIPPDDIKPLPPVDEDDPENKSAGGS [r16_395_TrROS] | 1.68 ± 0.13 | 2.09 ± 0.27 | 1.87 ± 0.32
SAGGWRIKLERDPENGKIKVSIERSPNEGYATVEVKLPNGKPLEIPGPMDSPDEMEEKARDYIKKLLSAGGS [r16_319_TrROS] | 0.777 ± 0.09 | 1.01 ± 0.086 | 0.991 ± 0.1
SAGGWTIEEIIDAIREAKENGPGQKVEIEIPFGGGPVRVSIEVPPDGRVKIEIQYDNKPIWEIEIPVSAGGS [r16_611_TrROS] | 1.98 ± 0.14 | 2.12 ± 0.081 | 2.02 ± 0.15
SAGGWYERIKEWAKDKGLKVDIEPTSFDPPNGWMPFEIEFPNGKKIDITFPDSPDQMLWMIRNMIKNSAGGS [r16_153_TrROS] | 1.63 ± 0.057 | 2.16 ± 0.09 | 2.05 ± 0.15
SAGGWYLRIEPDDGRELEIPMNDPGLPLEDLADKLMKDMPGPMKIKVEFYHPNKPVEHTIKIPLPKNSAGGS [r16_216_TrROS] | 0.443 ± 0.11 | 0.436 ± 0.33 | 0.423 ± 0.28
SAGGYEKKTIRIEATPEELENLLKELREKYPDLKVEVKVVKVEKKENDPNVSPKDKKVYLEITVVKPKPSAG [r5_437_TrROS_Hall] | 1.39 ± 0.12 | 1.89 ± 0.13 | 1.88 ± 0.17
SAGGYYKDPNGKPREPVPKVEPKPVTITFPNLTPEQADYLADYLRDLGLEVKYDPENGMLTAEFWIYSAGGS [r16_765_TrROS] | 1.23 ± 0.033 | 1.95 ± 0.077 | 1.71 ± 0.11
